{
  "source": "patent US20230383269A1",
  "about": "(DSM AUSTRIA, published 2023)",
  "target": "the molecule itself",
  "experiment": "Blue-Native-PAGE, oligomeric conformation (self-association of identical chains)",
  "from_the_text": "Comparison of the native molecular weight (oligomeric conformation) between single purified zearalenone-cleaving polypeptides was done via Blue-Native-PAGE. Dilutions of the elutes were supplied with not denaturating loading dye (e.g. 2× loading dye: 0.126 M tris(hydroxymethyl)aminomethan/hydrochloric acid pH 6.8, 20.0% glycerol, 4.0% Coomassie Blue G-250) and separated on a 4-15% polyacrylamid gel under native conditions (e.g. Mini-PROTEAN® Tetra Cell System, 1658004EDU+4-15% Mini-PROTEAN® TGX™ Precast Protein Gels, 4561083EDU, Bio-Rad Laboratories GmbH) (5× Anode Buffer: 0.125 M Tris(hydroxymethyl)aminomethane, 0.960 M Glycine, 1× Kathode Buffer: Anode Buffer+0.02% Coomassie Blue G250; 200 V, 40 minutes). The peptide bands were visualized by Coomassie staining. The oligomeric state of selected zearalenone-cleaving polypeptides was determined by size exclusion chromatography, SEC-MALS or X-Ray crystallography. Homo-dimers (e.g. SEQ ID NO. 1) migrated faster across the BN-PAGE gel matrix, while homo-tetramers (e.g. SEQ ID NO. 2-35) were retained in the gel matrix to a higher extent. The oligomeric conformation of the zearalenone-cleaving polypeptides was determined relatively to the migration of homo-dimeric and homo-tetrameric peptides.",
  "data": [
    {"protein": "parent alpha/beta hydrolase of SEQ ID NO: 1 (enzyme, homo-dimer; also called wildtype parent alpha/beta hydrolase; zearalenone-cleaving polypeptide) MTDQSPETRDIFVPHAFEEQQVDLGEVVMNYVEAGSADHPALLLLPEQTGSWWSYEPVIGLLAESFHVFAVDIRGQGRSTWTPKRYSLDNFGNDLVRFISLVVKRPVIVSGNSSGGVLAAWLSAYAMPGQIRAALCEDTPFFASELVPAHGHSVRQAAGPAFELYRNFLGDQWSVADWDGFAAAAKASPSKIMSLFPSSDEPPQNLKEYDPEWARAFFEGTVALHCPHDLMLSQVKTPILITHHARAVDPHSGDLLGALSDFQAERAQAIIESAGVPVEYASFPDALHMMHQFEPERFAEVLTSWVARLPADTPGAHHHHHH", "values": [
      {"measurement": "binding result", "result": "binds"}
    ]}
  ]
}
